PMC5680255

How the values were obtained:
[1] = biological target: Photosystem II subunit S (PsbS) of Physcomitrella patens, recombinant, detergent-refolded (Physcomitrella patens); experiment: SDS-PAGE without boiling; PsbS refolded in FC-12, pH 7.5; samples taken day 0 to day 90 after refolding; not boiled before loading
[2] = biological target: Photosystem II subunit S (PsbS) of Physcomitrella patens, recombinant, detergent-refolded (Physcomitrella patens); experiment: DOSY NMR; PsbS in FC-12, pH 5.0; 1H HN intensities, double-exponential fit
[3] = biological target: Photosystem II subunit S (PsbS) of Physcomitrella patens, recombinant, detergent-refolded (Physcomitrella patens); experiment: SEC; Superdex 200 5/150 GL; 100 mM sodium phosphate pH 7.5 with 0.05% FC12; detection at 260 nm
[4] = biological target: Photosystem II subunit S (PsbS) of Physcomitrella patens, recombinant, detergent-refolded (Physcomitrella patens); experiment: DOSY NMR; PsbS in FC-12, pH 7.5; 1H HN intensities, double-exponential fit
[5] = biological target: Photosystem II subunit S (PsbS) of Physcomitrella patens, recombinant, detergent-refolded (Physcomitrella patens); experiment: SEC; Superdex 200 5/150 GL; 100 mM sodium phosphate pH 7.5 with 1% OG; detection at 260 nm
[6] = biological target: Photosystem II subunit S (PsbS) of Physcomitrella patens, recombinant, detergent-refolded (Physcomitrella patens); experiment: SDS-PAGE without boiling; PsbS refolded in FC-12, pH 5.0; samples taken day 0 to day 90 after refolding; not boiled before loading

Measured: stoichiometry N

Photosystem II subunit S (PsbS) of Physcomitrella patens, recombinant, detergent-refolded (natural protein)
2: all assays above
